For this assay, the target named is CD3 on human CD3+ Jurkat T cells (human) (UniProt P07766). The assay can be described thus: cell-based or functional assay.
Sequence of CD3 on human CD3+ Jurkat T cells (human) (P07766 23-207): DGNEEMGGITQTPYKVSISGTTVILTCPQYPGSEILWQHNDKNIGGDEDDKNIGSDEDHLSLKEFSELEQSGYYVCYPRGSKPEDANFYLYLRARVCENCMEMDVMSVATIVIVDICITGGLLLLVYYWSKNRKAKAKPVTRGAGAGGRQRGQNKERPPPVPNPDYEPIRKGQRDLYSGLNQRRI

In the case of “v2171, bivalent anti-CD3 pHAb conjugated mAb (UCHT1) (antibody)”, the EC50 (nM) of internalization of the pHAb conjugate, Jurkat cells (CD19-, CD3+) stood at 13.2 nM and the internalization of the pHAb conjugate by Jurkat cells was 2 nM.

(Values after patent US20180193477A1.)
